Results on one molecule are retold here after article PMC4948679.

Several values for one entry are separate records, joined by “and”; a condition that tells them apart may be missing. Identical values can stand only once.

The experiment has as its target Ab2/3H6, murine/wild-type anti-idiotypic antibody (wt3H6) (mouse (developed from mouse hybridoma)). Description: BLI.

B1: broadly neutralizing anti-HIV-1 antibody 2F5 (antibody, V domains shown)
VH: RITLKESGPPLVKPTQTLTLTCSFSGFSLSDFGVGVGWIRQPPGKALEWLAIIYSDDDKRYSPSLNTRLTITKDTSKNQVVLVMTRVSPVDTATYFCAHRRGPTTLFGVPIARGPVNAMDVWGQGITVTISS
VL: ALQLTQSPSSLSASVGDRITITCRASQGVTSALAWYRQKPGSPPQLLIYDASSLESGVPSRFSGSGSGTEFTLTISTLRPEDFATYYCQQLHFYPHTFGGGTRVDVR
For B1, the response level is 3.5 nm and 3.4 nm.
